This is an account of results in paper PMC9418424.

The target in the assay is (AcA4)2KD amphiphilic peptide ((Ac-Ala-Ala-Ala-Ala)2-Lys-Asp-OH). Kind of assay: dynamic light scattering.

With “(AcA4)2KD amphiphilic peptide ((Ac-Ala-Ala-Ala-Ala)2-Lys-Asp-OH)”, the critical aggregation concentration is 0.8 mM.
